Results from article doi:10.1101/2022.05.28.493848.

Molecular target: Porcine skeletal muscle α-actin, filamentous (porcine) (UniProt P68137)

MyoB-MLC-B CaMLD complex, purified (from UniProt Q8I465 1-801; Q8III1 1-652)
coupling efficiency (kcat/Kapp) of the actin-activated ATPase: 9
